{
  "source": "patent US20040072742A1",
  "about": "(Takeda / Millennium, published 2004)",
  "key": {"[1]": {"biological_target": "T1, MD36NT (MD36 from the N terminus to the proline-rich domain, SEQ ID NO:33) fused to yeast GAL4 transcription … (yeast; human, UniProt Q9Y613 1-640, limits assumed)", "T1 construct": "also called pACT-MD36NT", "T1 sequence": "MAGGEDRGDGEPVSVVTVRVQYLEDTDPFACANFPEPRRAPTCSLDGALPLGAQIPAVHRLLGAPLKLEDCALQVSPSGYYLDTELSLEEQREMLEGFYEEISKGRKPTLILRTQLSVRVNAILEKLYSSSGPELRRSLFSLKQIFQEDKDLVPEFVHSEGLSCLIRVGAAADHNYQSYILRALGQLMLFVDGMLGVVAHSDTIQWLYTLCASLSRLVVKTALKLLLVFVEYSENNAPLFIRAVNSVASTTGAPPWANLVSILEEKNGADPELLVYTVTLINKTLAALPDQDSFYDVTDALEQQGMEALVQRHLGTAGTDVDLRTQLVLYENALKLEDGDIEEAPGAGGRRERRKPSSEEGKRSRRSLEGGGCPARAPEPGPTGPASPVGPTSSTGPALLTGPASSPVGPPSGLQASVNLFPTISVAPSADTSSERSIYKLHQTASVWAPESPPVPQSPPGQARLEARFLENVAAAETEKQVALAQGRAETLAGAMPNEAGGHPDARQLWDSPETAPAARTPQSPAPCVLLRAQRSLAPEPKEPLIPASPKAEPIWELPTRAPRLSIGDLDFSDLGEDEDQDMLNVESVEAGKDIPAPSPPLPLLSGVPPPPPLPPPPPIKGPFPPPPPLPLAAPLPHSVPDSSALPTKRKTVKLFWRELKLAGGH", "experiment": "yeast two-hybrid, HIS3 reporter growth on histidine-free medium", "description": "(§1) The protein-protein interaction between MD36 and the profilin family was detected by the yeast two-hybrid system. Based on pGBT9 (CLONTECH), expression plasmids were constructed to express the coding regions of profiling I (Evangelista et al., Science, 276, 118-122, 1997; Imamura et al., EMBO J., 16, 2745-2755, 1997; Tanaka, Biochem. Biophys. Res. Commun., 267, 479-481, 2000), profilin II (Schluter et al., Biohim. Biophys. Acta, 1359, 97-109, 1997), and profiling IIL in the form fused to yeast GAL4-DNA-binding domain protein under control of yeast ADH1 promoter. These plasmids were named pG-PFNI, pG-PFNII and pG-PFNIII, respectively (yeast selection marker was TRP1). On the other hand, expression plasmids that express the full-length sequence (SEQ ID NO:1) of MD36, which is IRAP-BP protein, or the coding region from this N-terminus to the sequence (SEQ ID NO:33) including the proline-rich domain in the form fused to yeast […] activated domain protein under control of yeast ADH1 promoter was constructed based on pACT2 (CLONTECH), and named pACT-MD36 and pACT-MD36NT, respectively (yeast selection marker was LEU2). pG-PFNI, pG-PFNII, pG-PFNIII or, pGBT9 for control was co-transfected to yeast Saccharomyces cerevisiae Y190 together with pACT-MD36 or pACT-MD36NT, and yeast strains bearing plasmids from the two were selected on SD medium free of tryptophan and leucine. […]"}, "[2]": {"biological_target": "T2, full-length MD36 (SEQ ID NO:1) fused to yeast GAL4 transcription activated domain protein (yeast; human, UniProt Q9Y613 1-1164, limits assumed)", "T2 construct": "also called pACT-MD36; IRAP-BP protein", "T2 sequence": "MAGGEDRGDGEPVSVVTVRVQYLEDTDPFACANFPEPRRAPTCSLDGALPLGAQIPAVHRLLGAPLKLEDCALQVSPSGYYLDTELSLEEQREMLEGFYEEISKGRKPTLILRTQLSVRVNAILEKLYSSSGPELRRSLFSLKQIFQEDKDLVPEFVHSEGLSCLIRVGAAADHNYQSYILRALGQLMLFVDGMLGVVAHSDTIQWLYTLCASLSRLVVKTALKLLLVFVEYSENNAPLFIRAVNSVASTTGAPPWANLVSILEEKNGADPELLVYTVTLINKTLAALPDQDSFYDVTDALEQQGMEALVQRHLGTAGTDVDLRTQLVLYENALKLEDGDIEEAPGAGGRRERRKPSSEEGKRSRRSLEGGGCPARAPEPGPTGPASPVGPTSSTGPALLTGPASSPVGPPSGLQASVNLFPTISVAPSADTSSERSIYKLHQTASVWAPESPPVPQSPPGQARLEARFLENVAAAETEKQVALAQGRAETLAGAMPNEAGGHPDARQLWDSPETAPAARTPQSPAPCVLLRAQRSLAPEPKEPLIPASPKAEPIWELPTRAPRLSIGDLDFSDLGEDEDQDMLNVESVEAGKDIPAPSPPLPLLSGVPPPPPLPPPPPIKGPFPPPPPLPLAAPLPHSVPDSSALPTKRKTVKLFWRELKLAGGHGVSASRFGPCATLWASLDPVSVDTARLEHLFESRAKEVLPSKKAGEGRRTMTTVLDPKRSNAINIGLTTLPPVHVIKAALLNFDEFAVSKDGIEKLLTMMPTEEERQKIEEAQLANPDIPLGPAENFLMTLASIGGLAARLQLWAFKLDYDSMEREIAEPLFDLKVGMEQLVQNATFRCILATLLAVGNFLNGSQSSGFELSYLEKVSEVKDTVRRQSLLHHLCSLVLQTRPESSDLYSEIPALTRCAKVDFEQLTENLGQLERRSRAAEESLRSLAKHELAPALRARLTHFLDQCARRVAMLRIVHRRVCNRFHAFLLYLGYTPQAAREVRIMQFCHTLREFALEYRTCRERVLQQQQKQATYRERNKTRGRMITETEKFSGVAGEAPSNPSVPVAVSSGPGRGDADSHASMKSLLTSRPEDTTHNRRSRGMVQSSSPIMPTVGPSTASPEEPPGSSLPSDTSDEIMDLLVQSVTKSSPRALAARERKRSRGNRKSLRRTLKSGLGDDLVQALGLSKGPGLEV", "experiment": "yeast two-hybrid, HIS3 reporter growth on histidine-free medium", "description": "as §1"}, "[3]": {"biological_target": "T1, MD36NT (MD36 from the N terminus to the …)", "experiment": "yeast two-hybrid, HIS3 reporter growth", "description": "as §1"}, "[4]": {"biological_target": "T2, full-length MD36 (SEQ ID NO:1) fused to …", "experiment": "yeast two-hybrid, HIS3 reporter growth", "description": "as §1"}},
  "data": [
    {"binder": "profilin II fused to yeast GAL4-DNA-binding domain protein (other, also called PFN II; pG-PFNII) MKLLSSIEQACDICRLKKLKCSKEKPKCAKCLKNNWECRYSPKTKRSPLTRAHLTEVESRLERLEQLFLLIFPREDLDMILKMDSLQDIKALLTGLFVQDNVNKDAVTDRLASVETDMPLTLRQHRISATSSSEESSNKGQRQLTVSAGWQSYVDNLMCDGCCQEAAIVGYCDAKYVWAATAGGVFQSITPIEIDMIVGKDREGFFTNGLTLGAKKCSVIRDSLYVDGDCTMDIRTKSQGGEPTYNVAVGRAGRALVIVMGKEGVHGGTLNKKAYELALYLRRSDV", "values": [
      {"measurement": "binding result", "setting": "[1]", "result": "no binding"},
      {"measurement": "binding result", "setting": "[2]", "result": "no binding"}
    ]},
    {"binder": "profilin IIL fused to yeast GAL4-DNA-binding domain protein (other, Profilin IIL was cloned from human skeletal muscle-derived cDNA; also called PFN IIL) MKLLSSIEQACDICRLKKLKCSKEKPKCAKCLKNNWECRYSPKTKRSPLTRAHLTEVESRLERLEQLFLLIFPREDLDMILKMDSLQDIKALLTGLFVQDNVNKDAVTDRLASVETDMPLTLRQHRISATSSSEESSNKGQRQLTVSMAGWQSYVDNLMCDGCCQEAAIVGYCDAKYVWAATAGGVFQSITPIEIDMIVGKDREGFFTNGLTLGAKKCSVIRDSLYVDGDCTMDIRTKSQGGEPTYNVAVGRAGRVLVFVMGKEGVHGGGLNKKAYSMAKYLRDSGF", "values": [
      {"measurement": "binding result", "setting": "[3]", "result": "binds"},
      {"measurement": "binding result", "setting": "[4]", "result": "binds"}
    ]}
  ]
}
